The target of assay [1] is T1, human MC4 receptor (human, UniProt P32245 1-332).
T1 construct: whole, on cells; It was tested as crude membranes prepared from cells expressing the receptor; also called hMC-4R

Assay [2] deals with T2, human MC5 receptor (human, UniProt P33032 1-325).
T2 construct: whole, on cells; It was tested as crude membranes prepared from cells expressing the receptor; also called hMC-5R

In assay [3] the target is T3, human MC3 receptor (human, UniProt P41968 1-323).
T3 construct: whole, on cells; It was tested as crude membranes prepared from cells expressing the receptor; also called hMC-3R

The target in assay [4] is rhesus melanocortin-4 receptor protein (rhesus monkey (Macaca mulatta)).
Assay [5] concerns the target T4, rhesus melanocortin-4 receptor protein (rhesus monkey (Macaca mulatta), UniProt Q8HXX3 1-332 (cynomolgus entry)).
T4 construct: This is the full-length 332 amino acid receptor encoded by pVE3099; also called rhMC-4R; rhesus MC-4R
Experimental: (§1) Reactions were incubated for 1 hour without shaking and then filtered through 96-well filter plates (Packard corp.). Filters were washed three times with TNE buffer (50 mM Tris pH 7.4, 5 mM EDTA, 150 mM NaCl), dried and counted using Microscint-20 in a Topcount scintillation counter (Packard).
(§2) Membranes prepared from rhesus MC-4R transfected cells were evaluated alongside membranes prepared from human MC-4R, MC-4R, and MC-5R expressing cells.

Assay [6] addresses T1, human MC4 receptor. This is another data set of the same source.
Experimental: as §1, §2
The target in assay [7] is T2, human MC5 receptor. This is another data set of the same source.
Experimental: as §1, §2
The target in assay [8] is T3, human MC3 receptor. This is another data set of the same source.
Experimental: as §1, §2

Read-outs that look alike come from different tables or passages of the source. Where no end group is shown, it is not given here.

T1 sequence (P32245 whole entry): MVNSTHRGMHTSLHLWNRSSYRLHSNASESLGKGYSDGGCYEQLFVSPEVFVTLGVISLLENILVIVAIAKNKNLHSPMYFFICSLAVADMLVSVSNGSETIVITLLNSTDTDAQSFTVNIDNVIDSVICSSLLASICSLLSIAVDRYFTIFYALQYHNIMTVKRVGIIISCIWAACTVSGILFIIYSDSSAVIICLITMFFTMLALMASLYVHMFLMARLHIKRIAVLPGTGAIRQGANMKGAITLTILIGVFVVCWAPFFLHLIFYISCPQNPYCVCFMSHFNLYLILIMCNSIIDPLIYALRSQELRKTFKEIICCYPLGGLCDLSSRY
T3 sequence (P41968 whole entry): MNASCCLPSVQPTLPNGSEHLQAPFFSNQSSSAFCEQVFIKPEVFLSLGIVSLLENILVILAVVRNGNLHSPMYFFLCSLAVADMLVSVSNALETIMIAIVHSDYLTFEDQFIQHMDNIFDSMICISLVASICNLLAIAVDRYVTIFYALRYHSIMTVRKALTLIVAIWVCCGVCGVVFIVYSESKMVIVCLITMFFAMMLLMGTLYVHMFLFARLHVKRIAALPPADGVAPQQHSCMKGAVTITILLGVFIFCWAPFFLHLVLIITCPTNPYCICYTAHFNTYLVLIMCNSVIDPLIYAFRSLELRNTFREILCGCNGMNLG
T4 sequence (Q8HXX3 whole entry R167G): as the sequence (P32245 whole entry) above, with T11A, Y21H, A114T, I296V counted along it
Sequence of rhesus melanocortin-4 receptor protein (rhesus monkey (Macaca mulatta)) (Q8HXX3 whole entry R167G): as the sequence (P32245 whole entry) above, with T11A, Y21H, A114T, I296V counted along it
T2 sequence (P33032 whole entry): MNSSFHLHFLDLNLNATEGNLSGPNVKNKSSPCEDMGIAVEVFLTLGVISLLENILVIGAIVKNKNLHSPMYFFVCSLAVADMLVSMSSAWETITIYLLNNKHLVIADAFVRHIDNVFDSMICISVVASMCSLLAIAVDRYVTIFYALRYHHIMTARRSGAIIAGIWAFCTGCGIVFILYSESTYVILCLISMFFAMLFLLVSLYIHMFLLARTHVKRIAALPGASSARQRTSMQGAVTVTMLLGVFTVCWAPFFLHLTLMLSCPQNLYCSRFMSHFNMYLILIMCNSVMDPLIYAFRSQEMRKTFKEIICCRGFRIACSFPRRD

With SHU-9119 (peptide), the IC50 in the assay with human MC4 receptor [1] was found to be 0.1 nM; with human MC5 receptor [2] it was 0.1 nM; with human MC3 receptor [3], 0.3 nM; in assay [4], 0.2 nM.

For MTII (peptide), the IC50 turned out to be 0.1 nM in the assay with human MC4 receptor [1], 0.9 nM with human MC5 receptor [2] and 0.1 nM in assay [4].

Regarding NDP-alpha-MSH (peptide), the IC50 in the assay with human MC4 receptor [1] came to 0.6 nM; in the assay with human MC5 receptor [2] it was 0.4 nM; with human MC3 receptor [3], 0.6 nM; in assay [4], 1.3 nM.

B1: Gamma MSH (peptide, UniProt P01189 77-87, looked up)
peptide: YVMGHFRWDRF
modifications: ends and bridges not checked
notes: domain: gamma MSH; The peptide is only a part of it; also called γ-MSH
In assay [5], B1 registered an IC50 of 211 nM.

B2: ACTH1-39 (peptide, UniProt P01189 138-176, looked up)
peptide: SYSMEHFRWGKPVGKKRRPVKVYPNGAEDESAEAFPLEF
notes: domain: ACTH1-39; The numbers 1-39 count on the ACTH peptide, not on the precursor
On to B2, for which the IC50 with human MC4 receptor [6] turned out to be 6 nM; in assay [5], 1.3 nM; with human MC5 receptor [7], 0.4 nM; with human MC3 receptor [8], 6 nM.

B3: Beta MSH (peptide, UniProt P01189 217-234, looked up)
peptide: DEGPYRMEHFRWGSPPKD
notes: domain: beta MSH; The peptide is only a part of it; also called β-MSH
Consider B3, for which the IC50 was 23 nM in assay [5], 166 nM with human MC5 receptor [7] and 23 nM with human MC3 receptor [8].

B4: Alpha MSH (peptide, UniProt P01189 138-150, looked up)
peptide: SYSMEHFRWGKPV
notes: domain: alpha MSH; The peptide is only a part of it; also called α-MSH; α-melanocyte stimulating hormone
Regarding B4, the IC50 in assay [5] was 27 nM.

Usually IC50 stands for the concentration that gives 50% inhibition.
